Reference: patent US5574016A, “Peptide compound and a process for the preparation thereof” (Fujisawa Pharmaceutical Co., Ltd., priority 1991, dated 1996)

System: thrombosis model in Guinea-pig (FeCl3 carotid artery thrombosis)
Experiment: Enhancement of thrombolytic activity of TPA in thrombosis model in Guinea-pig
Format: in vivo, Male Hartley guinea-pigs
Conditions: Group 1 (5 animals): saline and r-TPA 0.30 mg/kg i.v. bolus +1.0 mg/kg/hour i.v. infusion; reperfusion = 50 % recovery of carotid blood flow velocity; recorded up to 90 minutes
Description: Male Hartley guinea-pigs (500-800 g) were anesthetized with urethane (1.25 g/kg i.p.). The carotid artery and cervical vein were carefully exposed after a midline cervical insision. The vein was cannulated with a polyethylene catheter (PE50; Becton Dikinson, U.S.A.) for the injection and infusion of the drug. A pulse Dopplar flow probe was placed around the carotid artery to record the blood flow velocity to moniter thrombus formation and thrombolysis. Carotid artery thrombosis was induced by the FeCl3 method as follows;
a square (1 mm×1 mm) of ADVANTEC No. 2 filter paper immersed in 20% FeCl3 was placed on the carotid artery which became occluded by a thrombus.
When the blood flow velocity decreased to zero, the filter paper was removed from the vessel and the carotid artery were washed with saline more than 4 times. The test compound or saline was injected 3 minutes after the washing and 3 minutes later r-TPA [Actilyse (trademark); Boehringer Ingelheim Ltd] was infused for 60 minutes.
The animals were divided into the following groups;
Group 1 (5 animals): Saline and r-TPA at 0.30 mg/kg i.v. bolus +1.0 mg/kg/hour i.v. infusion […]
The reperfusion was defined as 50 % recovery of carotid artery blood flow velocity compared with the initial value. The blood flow was recorded up to 90 minutes.

B1: r-TPA: r-TPA [Actilyse (trademark); Boehringer Ingelheim Ltd], tissue plasminogen activator, infused for 60 minutes (protein, UniProt P00750 36-562, looked up)
Tissue-type plasminogen …: SYQVICRDEKTQMIYQQHQSWLRPVLRSNRVEYCWCNSGRAQCHSVPVKSCSEPRCFNGGTCQQALYFSDFVCQCPEGFAGKCCEIDTRATCYEDQGISYRGTWSTAESGAECTNWNSSALAQKPYSGRRPDAIRLGLGNHNYCRNPDRDSKPWCYVFKAGKYSSEFCSTPACSEGNSDCYFGNGSAYRGTHSLTESGASCLPWNSMILIGKVYTAQNPSAQALGLGKHNYCRNPDGDAKPWCHVLKNRRLTWEYCDVPSCSTCGLRQYSQPQFRIKGGLFADIASHPWQAAIFAKHRRSPGERFLCGGILISSCWILSAAHCFQERFPPHHLTVILGRTYRVVPGEEEQKFEVEKYIVHKEFDDDTYDNDIALLQLKSDSSRCAQESSVVRTVCLPPADLQLPDWTECELSGYGKHEALSPFYSERLKEAHVRLYPSSRCTSQHLLNRTVTDNMLCAGDTRSGGPQANLHDACQGDSGGPLVCLNDGRMTLVGIISWGLGCGQKDVPGVYTKVTNYLDWIRDNMRP
  number of animals in which reperfusion was observed: 1
